Source: patent US20230235013A1 (MABSOLVE, published 2023)
Residue numbers refer to the chain shown, from its start. Numbers in names are those of the source. Each block holds one binder with its values, some of them ahead of it.

What was measured:
[1] = molecular target: T1, Histidine-tagged recombinant human FcγRI (CD64) (human, UniProt P12314 16-288, limits assumed); experiment: SPR, His-FcγRI captured; Expt 1;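 further: SPR at 25 °C on anti-His antibody chip capturing FcγRI, Fc-variant antibodies injected at 100 µg/mL for 1 min, signal near end of injection minus buffer blank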
T1 construct: bought

[2] = molecular target: T1, Histidine-tagged recombinant human …; experiment: SPR, His-FcγRI captured; mean;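 further: biacore T200 SPR at 25 °C, anti-His surface capturing FcγRI, Fc-variant antibodies injected at 100 µg/mL for 1 min, signal near injection end minus third buffer blank, three repeats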
Method: (§1) Binding analysis was carried out by surface plasmon resonance at 25° C. using a Biacore® T200 instrument with Biacore® T200 control software. The sample compartment was held at 5° C. The running buffer (HBS-EP+) consisted of 0.01 M HEPES pH 7.4, containing 0.15 M NaCl, 3 mM EDTA, and 0.05% v/v Surfactant P20. Methods were run using the manufacturer's standard method wizards as described in the Biacore® T200 Instrument Handbook.
(§2) The cell was activated by treatment with EDC/NHS for 7 min. The antibody was diluted to 10 μg/mL in 10 mM sodium acetate pH 5.0 and injected for 7 min at 5 μL/min. The flow cell was deactivated by injection of 1M ethanolamine for 7 min. This process was repeated in the absence of anti-his antibody on a separate flow cell to generate a reference surface. […] Samples of purified antibodies comprising variant Fc regions (1 mg/mL in PBS) were diluted with running buffer to 100 μg/mL and were injected for 1 min at 30 μL/min and allowed to disassociate for 2 min. Between each cycle, the chip was regenerated by injection of 10 mM glycine pH 3.0 for 0.5 min at a flow rate of 30 μL/min and recharged with a fresh injection of FcγRI. At the beginning of each experiment, three blank cycles were run, with buffer alone being injected instead of test sample. The average SPR signal (relative to the reference cell) was measured in a window approximately 8 to 13 seconds before the injection of test sample (baseline) and approximately 3 to 8 seconds before the end of injection (response). The response of the third of the blank (buffer) samples was subtracted from the response of each test sample in order to allow for any dissociation of the bound FcγRI giving a corrected response for each test sample. The whole experiment was repeated three times with the test samples being analysed in different orders each time.

[3] = molecular target: T1, Histidine-tagged recombinant human …; experiment: SPR, His-FcγRI captured; Expt 2;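 further: biacore T200 SPR at 25 °C, Fc-variant antibodies at 100 µg/mL flowed 1 min over anti-His-captured receptor, signal read near injection end minus third buffer blank; antibody analyte injected at 100 µg/mL for 1 min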
Method: as §1, §2

[4] = molecular target: T1, Histidine-tagged recombinant human …; experiment: SPR, His-FcγRI captured; Expt 3;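 further: biacore T200 SPR at 25 °C, Fc-variant antibodies at 100 µg/mL flowed 1 min over anti-His-captured FcγRI, signal taken just before injection end minus a buffer blank cycle; antibody analyte injected at 100 µg/mL for 1 min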
Method: as §1, §2

[5] = molecular target: T2, human FcγRIIIA (F158) (human, UniProt P08637 17-208); experiment: SPR, FcγRIIIA captured; further: test concentration or dose not given here
T2 construct: bought; F158 allele
T2 sequence (P08637 17-208 limits assumed): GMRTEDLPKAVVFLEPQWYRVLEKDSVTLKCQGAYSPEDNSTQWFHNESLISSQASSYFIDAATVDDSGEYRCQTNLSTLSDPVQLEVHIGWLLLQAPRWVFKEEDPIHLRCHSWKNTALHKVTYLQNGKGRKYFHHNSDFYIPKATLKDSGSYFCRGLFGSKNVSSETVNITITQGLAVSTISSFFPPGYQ

Corrected response (RU) [1]: 0 RU
Corrected response (RU), Mean [2]: 0.4 RU
Corrected response (RU) [3]: -1.2 RU
Corrected response (RU) [4]: 2.4 RU
Corrected response (RU) [5]: 6 RU
B1: anti-CD20 human IgG1 L234A/L235S/G236R (antibody)
heavy: not shown
light: QIVLSQSPAILSASPGEKVTMTCRASSSVSYIHWFQQKPGSSPKPWIYATSNLASGVPVRFSGSGSGTSYSLTISRVEAEDAATYYCQQWTSNPPTFGGGTKLEIKRTVAAPSVFIFPPSDEQLKSGTASVVCLLNNFYPREAKVQWKVDNALQSGNSQESVTEQDSKDSTYSLSSTLTLSKADYEKHKVYACEVTHQGLSSPVTKSFNRGEC
notes: also called 2-4; 1-14

Corrected response (RU) [1]: -0.4 RU
Corrected response (RU), Mean [2]: 0.7 RU
Corrected response (RU) [3]: 1.8 RU
Corrected response (RU) [5]: 10.2 RU
B2: anti-CD20 human IgG1 L234R/L235R/G236R (antibody)
heavy: QVQLQQPGAELVKPGASVKMSCKASGYTFTSYNMHWVKQTPGRGLEWIGAIYPGNGDTSYNQKFKGKATLTADKSSSTAYMQLSSLTSEDSAVYYCARSTYYGGDWYFNVWGAGTTVTVSSASTKGPSVFPLAPSSKSTSGGTAALGCLVKDYFPEPVTVSWNSGALTSGVHTFPAVLQSSGLYSLSSVVTVPSSSLGTQTYICNVNHKPSNTKVDKKVEPKSCDKTHTCPPCPAPERRRGPSVFLFPPKPKDTLMISRTPEVTCVVVDVSHEDPEVKFNWYVDGVEVHNAKTKPREEQYNSTYRVVSVLTVLHQDWLNGKEYKCKVSNKALPAPIEKTISKAKGQPREPQVYTLPPSRDELTKNQVSLTCLVKGFYPSDIAVEWESNGQPENNYKTTPPVLDSDGSFFLYSKLTVDKSRWQQGNVFSCSVMHEALHNHYTQKSLSLSPGK
light: B1 light
notes: also called 2-43

Corrected response (RU) [1]: 0.8 RU
Corrected response (RU), Mean [2]: 1.4 RU
Corrected response (RU) [3]: 0.9 RU
Corrected response (RU) [4]: 2.5 RU
Corrected response (RU) [5]: 2.5 RU
B3: anti-CD20 human IgG1 L234T/L235S/G236R (antibody)
heavy: B2 heavy with R238T, R239S
light: B1 light
notes: also called 2-62

Corrected response (RU) [1]: 0.9 RU
Corrected response (RU), Mean [2]: 2.4 RU
Corrected response (RU) [3]: 1.8 RU
Corrected response (RU) [4]: 4.6 RU
Corrected response (RU) [5]: 4.6 RU
B4: anti-CD20 human IgG1 L234R/L235E/G236R (antibody)
heavy: B2 heavy with R239E
light: B1 light
notes: also called 2-37

Corrected response (RU) [1]: -1.4 RU
Corrected response (RU), Mean [2]: 0.2 RU
Corrected response (RU) [3]: 0.1 RU
Corrected response (RU) [4]: 1.8 RU
Corrected response (RU) [5]: 3.7 RU
B5: anti-CD20 human IgG1 L234D/L235K/G236R (antibody)
heavy: B2 heavy with R238D, R239K
light: B1 light
notes: also called 2-7; 1-23

Corrected response (RU) [1]: -1.1 RU
Corrected response (RU), Mean [2]: 0.8 RU
Corrected response (RU) [4]: 1.6 RU
Corrected response (RU) [5]: 2.4 RU
B6: anti-CD20 human IgG1 L234S/L235R/G236R (antibody)
heavy: B2 heavy with R238S
light: B1 light
notes: also called 2-51

Corrected response (RU) [1]: 0 RU
Corrected response (RU) [3]: 2.4 RU
Corrected response (RU) [4]: 3.9 RU
Corrected response (RU) [5]: 4.4 RU
B7: anti-CD20 human IgG1 L234R/L235K/G236R (antibody)
heavy: B2 heavy with R239K
light: B1 light
notes: also called 2-40

Corrected response (RU) [1]: -1.7 RU
Corrected response (RU) [3]: 1.1 RU
Corrected response (RU) [4]: 4.1 RU
Corrected response (RU) [5]: 7.3 RU
B8: anti-CD20 human IgG1 L234K/L235S/G236R (antibody)
heavy: B2 heavy with R238K, R239S
light: B1 light
notes: also called 2-24; 1-89

Corrected response (RU) [1]: -1.7 RU
Corrected response (RU), Mean [2]: 0.6 RU
Corrected response (RU) [3]: 0.4 RU
Corrected response (RU) [4]: 3.1 RU
Corrected response (RU) [5]: 5.5 RU
B9: anti-CD20 human IgG1 L234K/L235V/G236R (antibody)
heavy: B2 heavy with R238K, R239V
light: B1 light
notes: also called 2-26; 1-91

Corrected response (RU), Mean [2]: 2.2 RU
Corrected response (RU) [4]: 3.6 RU
Corrected response (RU) [5]: 4.4 RU
B10: anti-CD20 human IgG1 L234Q/L235A/G236R (antibody)
heavy: not shown
light: B1 light
notes: also called 2-27

Corrected response (RU) [1]: -1.2 RU
Corrected response (RU), Mean [2]: 0.6 RU
Corrected response (RU) [3]: 0.7 RU
Corrected response (RU) [4]: 2.3 RU
Corrected response (RU) [5]: 3.9 RU
B11: anti-CD20 human IgG1 L234R/L235H/G236R (antibody)
heavy: B2 heavy with R239H
light: B1 light
notes: also called 2-38

Corrected response (RU) [1]: 0.4 RU
Corrected response (RU), Mean [2]: 1.8 RU
Corrected response (RU) [3]: 1.1 RU
Corrected response (RU) [4]: 3.9 RU
Corrected response (RU) [5]: 3.7 RU
B12: anti-CD20 human IgG1 L234S/L235H/G236R (antibody)
heavy: B2 heavy with R238S, R239H
light: B1 light
notes: also called 2-48

Corrected response (RU) [1]: -0.8 RU
Corrected response (RU), Mean [2]: 0.1 RU
Corrected response (RU) [3]: -0.2 RU
Corrected response (RU) [5]: 2.7 RU
B13: anti-CD20 human IgG1 L234R/L235I/G236R (antibody)
heavy: B2 heavy with R239I
light: B1 light
notes: also called 2-39

Corrected response (RU) [1]: 0.5 RU
Corrected response (RU), Mean [2]: 2.5 RU
Corrected response (RU) [3]: 2.5 RU
Corrected response (RU) [4]: 4.5 RU
Corrected response (RU) [5]: 4.7 RU
B14: anti-CD20 human IgG1 L234Q/L235V/G236R (antibody)
heavy: B2 heavy with R238Q, R239V
light: B1 light

Corrected response (RU) [1]: 2.2 RU
Corrected response (RU), Mean [2]: 3 RU
Corrected response (RU) [3]: 2.3 RU
Corrected response (RU) [4]: 4.5 RU
Corrected response (RU) [5]: 3 RU
B15: anti-CD20 human IgG1 L234T/L235Q/G236R (antibody)
heavy: B2 heavy with R238T, R239Q
light: B1 light
notes: also called 2-60

Corrected response (RU) [1]: 1.1 RU
Corrected response (RU), Mean [2]: 2.7 RU
Corrected response (RU) [3]: 2.4 RU
Corrected response (RU) [4]: 4.5 RU
Corrected response (RU) [5]: 3.5 RU
B16: anti-CD20 human IgG1 L234T/L235K/G236R (antibody)
heavy: B2 heavy with R238T, R239K
light: B1 light
notes: also called 2-58

Corrected response (RU) [1]: 0.6 RU
Corrected response (RU), Mean [2]: 2.2 RU
Corrected response (RU) [4]: 3.2 RU
Corrected response (RU) [5]: 7.1 RU
B17: anti-CD20 human IgG1 L234K/L235R/G236R (antibody)
heavy: B2 heavy with R238K
light: B1 light
notes: also called 2-23; 1-88

Corrected response (RU) [1]: 0.2 RU
Corrected response (RU), Mean [2]: 1.8 RU
Corrected response (RU) [3]: 1.6 RU
Corrected response (RU) [4]: 3.5 RU
Corrected response (RU) [5]: 3.8 RU
B18: anti-CD20 human IgG1 L234T/L235R/G236R (antibody)
heavy: B2 heavy with R238T
light: B1 light
notes: also called 2-61

Corrected response (RU) [1]: 1.3 RU
Corrected response (RU) [5]: 17.1 RU
B19: anti-CD20 human IgG1 L234T/L235T/G236R (antibody)
heavy: B2 heavy with R238T, R239T
light: B1 light
notes: also called 2-63; 1-165

Corrected response (RU) [1]: -0.1 RU
Corrected response (RU) [3]: 2.7 RU
Corrected response (RU) [4]: 3.1 RU
Corrected response (RU) [5]: 5.8 RU
B20: anti-CD20 human IgG1 L234G/L235S/G236R (antibody)
heavy: B2 heavy with R238G, R239S
light: B1 light
notes: also called 2-19; 1-59

Corrected response (RU) [1]: 2.6 RU
Corrected response (RU), Mean [2]: 2.6 RU
Corrected response (RU) [4]: 3.7 RU
Corrected response (RU) [5]: 3.8 RU
B21: anti-CD20 human IgG1 L234S/L235G/G236R (antibody)
heavy: B2 heavy with R238S, R239G
light: B1 light
notes: also called 2-47; 1-140
